{
  "source": "paper PMC5789857",
  "about": "(Nature Communications, 2018)",
  "binders": {"B1": {"name": "Fab fragment of neutralizing mouse monoclonal antibody 19/1786 (Fab, V domains shown)", "VH": "EVKLEESGGGLVQPGGSLKLSCAASGFTFSSYGMSWVRQTPDKRLELVAATNSDGDSTYYPDSVKGRFTISRDRAKNTLYLQMSSLKSEDTAMYYCTRVLYDYDGEFAYWGQGTLVTVSA", "VL": "DIVMTQSQKFMSTSVGDRVTVTCKASQNVGTNVAWYQQKPGQSPKGLIYSASYRYSGVPDRFIGSGSGTDFTLTISNVQSGDLAEYFCQQYNNHPLTFGAGTKLELK"}},
  "biological_target": "TBEV envelope protein (E-protein), strain Hypr, in the purified virion (tick-borne encephalitis virus, strain …, UniProt Q01299)",
  "assay": "cell-based or functional assay",
  "data": [
    {"binder": "B1", "values": [
      {"measurement": "neutralisation of TBEV (cytolysis of porcine kidney stable cells), EC50", "value": 35, "unit": "µg/mL"}
    ]}
  ]
}
